From the DeepSol protein solubility set

Experiment: soluble on expression in E. coli; label from the status in PepcDB or PDB records

Row | Sequence | soluble on expression in E. coli
1 | MGSDKIHHHHHHMHLAAEQMNLSQPAVSKMLKEIEGLLGFQVFERLPRNMPVTALGEHVIRYAQRVLNDAKHFVEDIEILRLGGHGFLKVGGIFAATAVVIPNSIIEIKKQWPLLSIDVVEQTSDHLMEMLSEHTLDLAIGRFTDVTQSQFFDFQPLGPEPFCIVVNNAHPCAQKKFCTLEELLKWPWVLYPKGTPIRERMEGAFARAKVKIPLNTVNTMSMQTFLQILKGAPMVGMLPEAMVIDQVKEGQLQILETDLILDAQDYGILTRKDEPVSDIAAAFINILLKNAKRK | not soluble
2 | MRTNAFEAVARYVYPSLRRRLVEILRERGLTQIQIAELLHITQSAVSRYLRMNRGALIEVEKFQDIDEKLKGLADTIVREKPDEYYIHGELVKIAVEMLGKGYVCSFHSKVDPEIDPKLCRICIETFGLEHHHHHH | soluble
3 | MGHHHHHHSHEMLPEIGEEKVAIIAPSPSDHPQFKEILQHYVEQGKEVSPSSVRADTLDEELADLLKKAGVKTLTIAPETASDKLQEVINKGIGDEEVMRAAELASTRFEKVKLYYMVGLPGESFEDVKAILEQALRVKKLVGKVEISVNPLVPKPHTPLQWMGFGGEEELREGISHLKKKLEYLRREARRAGIGADVSGFKEFAIQTILSRGDREVAEML | soluble
4 | MIKRVFIDTDIILDVALAREPFFTASKIILAMAENNIIIGNISSNCVANIYYILRKSGGDNKARKFILNIVKYITVIVINHRNVLDSLRSKFSDFEDALQHSSAVENQCEYIITRNIEDYKNAKIKVLLPEEFIGMFLEHHHHHH | not soluble
5 | MFKILRKERLAPGINLFEIESPRIAKHAKPGQFVMIRLHEKGERIPLTIADVDISKGSITIVAQEVGKTTRELGTYEAGDYILDVLGPLGKPSHIDYFGTVVMIGGGVGVAEIYPVAKAMKEKGNYVISILGFRTKDLVFWEDKLRSVSDEVIVTTNDGSYGMKGFTTHALQKLIEEGRKIDLVHAVGPAIMMKAVAELTKPYGIKTVASLNPIMVDGTGMCGACRVTVGGEVKFACVDGPEFDAHLVDWDQLMNRLAYYRDLEKISLEKWERERRMV | not soluble
6 | MSLDIEQQFLNDLDNQLWRAADKLRSNLDAANYKHVVLGLIFLKYVSDAFEERQQELTELFQKDDDDNIYYLPREDYDSDEAYQQAIAEELEIGDYYTEKNVFWVPKTARWNKLRDVITLPTGSVIWQDEQGEDVKLRSVSWLIDNAFDDIEKANPKLKGILNRISQYQLDADKLIGLINEFSLTSFNNPEYNGEKLNLKSKDILGHVYEYFLGQFALAEGKQGGQYYTPKSIVTLIVEMLEPYKGRVYDPAMGSGGFFVSSDKFIEKHANVKHYNASEQKKQISVYGQESNPTTWKLAAMNMVIRGIDFNFGKKNADSFLDDQHPDLRADFVMTNPPFNMKDWWHEKLADDPRWTINTNGEKRILTPPTGNANFAWMLHMLYHLAPTGSMALLLANGSMSSNTNNEGEIRKTLVEQDLVECMVALPGQLFTNTQIPACIWFLTKDKNAKNGKRDRRGQVLFIDARKLGYMKDRVLRDFKDEDIQKLADTFHNWQQEWSEENNQAGFCFSADLALIRKNDFVLTPGRYVGAEAEEDEGHHHHHH | soluble
7 | MSPTLTHLALHVPDLDACIAFYETFCGMRVIHRRPGKGSQIVWMAEPGQEQRFIFVIMPGGQPRNLASDDYSHFGFALSSRAAVDDLARRAEAAGCLVWAPRDEPYPVGYYCGLRDPAGNYVEFSYGQPLGPGSEALPIP | not soluble
8 | MAHHHHHHMSDVIKLCEAEELKELFIKEYNEYLKLIKNVELYYEKLEINWKKFHLFYQQNKKDPFEYHKEKNKHNKIKKVQNKKKNINIHSDYQSIEKYFKMIQKKEIQNNCHYYKKFDYDKDSFILFTLKKNVNNAVELYININIEKLNKIKNYLLNYINDFCKRQINQIINLIILCEIKLNNLYISQKNHFTNNNIKIKHIHLIKNIIHFNQQFIFEVTKNLIPFFTNFNIFSSPDYFNYQFNYFNNCVEIMGE | not soluble
9 | MGSSHHHHHHSSGLVPRGSHMFLTRRDPPLSSFWTKVQYQRLKELNASGEQLEMGFSDALSRDRAFQGIEHQLMSQGKRHLEQLRTVKHRPALLELEEKLAKALHQQGFVQVVTPTIITKSALAKMTIGEDHPLFSQVFWLDGKKCLRPMLAPNLYTLWRELERLWDKPIRIFEIGTCYRKESQGAQHLNEFTMLNLTELGTPLEERHQRLEDMARWVLEAAGIREFELVTESSVVYGDTVDVMKGDLELASGAMGPHFLDEKWEIFDPWVGLGFGLERLLMIREGTQHVQSMARSLSYLDGVRLNIN | soluble
10 | MIRQLSLKDYEGVAGSALIDEIRSLGESLQGYNVRHINSTIIGGGVAEILSSLVPLMEDVGLTVNWEVLAGTTEFFHTTKLFHNGMHGQPVNITGEMLENYLAIAQKNQNLLDGDADLVVIHDQQPLGLTAFRGRTRGRWLWYCHVDPRYAVPEVWYFLAPMVATCDAAVFHLPEYARDLPVLQYFMPPAIDPLSDKLEHHHHHH | soluble
11 | GPGSMDGRNGSKRARSEPANGPNQSNVGTSGVEEPHVEEVPARDPELERQLDRLNIDDNLKESLRGLSPSTRGEVMNDIIRSETIERASSLMEQANLLSLIELRRLPELMEEGMSSQHYRADVDDDSELHEFGQALEDMQADGQSPSPQRGRPHGMLHTPGPLILEFLRAFAAGTHAAFADAAGVSEHLNILSELAAQRAMGVTEDVDNMSYEELLELEDKIGYVSRGVKPEDVQKCVKDVPTPHEGNCVVCQCEWSDNAETAPAVVELNRCKHVFHRTCIREWLLKNKKCPVCTQEVV | soluble
12 | MGSDKIHHHHHHMYREFYGLREKPFSKTPDPRYLFLSRGHREALARLQYAVEERELALLTGDIGCGKTTISRALMDAMGEACRFCFIFNPRLSPLEFLRVIARSLGIDNPAGAKDELLKQLTETLYLMHAEGRCPVIVVDEAQLIPDRDVFDEIRLLTNYQLDDQNLMSVVLMGQPELRQILADPVHEPLRQRIALHYHLQPLSLDETLEYIDFRLEVAGGTPGLFSPDAVQRIHELSGGVPRKINILATNALLVGYGRDAAWIDASLVEELRDEANLY | not soluble
13 | MGSDKIHHHHHHVSNGAATRVRRSREKILGAAESVFLQHGFLGTNMDVIADTAGVSKQTVYAHFKSKEALFIDVVEAMTGGAAEEIGEDIEDVFGDRKAEDYLLEVAIDQLTVVLTPRLMQLRRMVIGEVERFPELGRSLYVNGPIRSITRLTRACAHYTRIGELITPDPQAAATQFNWIVMGAPTNAAMLLGDAGIPTSAQLQAHATEAVRIFLCAYGAKQMHPR | not soluble
14 | MSLGKRIFVFDTTLRDGEQVPGCQLNTEEKIIVAKALDELGVDVIEAGFPVSSPGDFNSVVEITKAVTRPTICALTRAKEADINIAGEALRFAKRSRIHTGIGSSDIHIEHKLRSTRENILEMAVAAVKQAKKVVHEVEFFCEDAGRADQAFLARMVEAVIEAGADVVNIPDTTGYMLPWQYGERIKYLMDNVSNIDKAILSAHCHNDLGLATANSLAALQNGARQVECTINGIGERAGNTALEEVVMAMECHKETLGLETGINHKKLVPISHLVSTLMRMQVQSNKAIVGRNAFAHSSGIHQDGFLKHRETYEIIDPAAVGADSSSIILTARSGRAALNHRLATIGYMLSKDQLDQAYTQFLDMADHLRKVEDENLHELMRGKVYAKEGHHHHHH | soluble
15 | MSLNLNVLEIKSFVPAQDFTTSKQFYLSLGFELITEFGDVAYLRLGQCAFLLQNTHQRPHQGNTMMHLLVEDAQSWFDHVKTLQLEERFESKVTDLITQPWGMLEFCLVDPSDVLWRIGQRIGEGHHHHTTDPNSSSVDKLAAALEHHHHHH | soluble
16 | MTQIPPSRLHSPLDRLLVEAQRALDTVFGNPPAERPNPAGDTPDAALAPAQRQHAAGLMRINHVGEVCAQGLYFGQAAVARDDHTRQHLLTAAQEETDHLAWCADRLRELESRPSLFNPLWYAGSYALGAVAGLRGDDWSLGFVVETERQVEAHLDEHLETLPETDQRSRAILRVMKIDEARHADHAEQAGARILPPPIPSAMALASKLMKTIAYRFLEHHHHHH | not soluble
17 | MNVLRPTLLTLACLLASPGFADDLPSLGDASSAIVSPQQEYQLGRAWLALLRSQVSQLNDPQLKDYVETSVYKLVETSQVNDRRLEFILINSPQLNAFAAPGGIIGVNGGLFLNAQTEGEYASVLAHELAHLSQRHFARGVEAQQRMQVPMMAALLAGIVIAAAGAGDAGIATIAGTQAAAIQEQRRFSRQNEQEADRIGILNLEKAGYDPRSMPTMFERLMRQYRFDAKPPEFLLTHPVTESRIADTRNRAEQARQGGTEDSLRYQLIRARVQLTYEESPGLAAKRFRAQLDENPKNDIARYGLAIAQIKGSQWNEARENLKPLLAKSPNDVTYNLAQIELDMANSRLPDAQTRVERMLNLYPGNYPLNQIRVDLLLKQNRPADAEKALEGLLKSRPDDPDVWYLVAETRGLSGNIIGLHQARAEYFALVGDYRQAIQQLDFAKRRAGSNFPLSSRIDARQREMMDQEQMVKDMMRLEHHHHHH | soluble
18 | VRSVQEHQRVVAEMMRACRPITVPLTQAQGLVLGGDVVAPLSLPVFDNSAMDGYAVRAEDTSGATPQNPVMLPVAEDIPAGRADMLTLQPVTAHRIMTGAPVPTGATAIVPVEATDGGVDSVAIRQQATPGKHIRRSGEDVAAGTTVLHNGQIVTPAVLGLAAALGLAELPVLPRQRVLVISTGSELASPGTPLQPGQIYESNSIMLAAAVRDAGAAVVATATAGDDVAQFGAILDRYAVDADLIITSGGVSAGAYEVVKDAFGSADYRGGDHGVEFVKVAMQPGMPQGVGRVAGTPIVTLPGNPVSALVSFEVFIRPPLRMAMGLPDPYRPHRSAVLTASLTSPRGKRQFRRAILDHQAGTVISYGPPASHHLRWLASANGLLDIPEDVVEVAAGTQLQVWDLT | not soluble
19 | MGSDKIHHHHHHMRKKIVFIIRDLGYGGAQRQLITLVKNLDKQIFNTTVIFFYANGSLQKDLENNNIQTICLEKRGRWDIFGFLWRLMGHLKRIQPDSLHGYLSESNLLTIFLKPFFLSTSIIWGIRDSNISLDSYDWLDRLIFEIECLLSRFVDLIIVNSHAGQAYHLSHGFPAKKMVVIPNGIDTERFQPNSEAGLRVRTEWRISKDTILIGLIGRLDPMKDHPTFLKAVALLCKERENVCFVCVGIGTHEYAQELYQLAEELEVAEKVIWAGGRADMPDIYNALDITCSSSSYGEGFSNVIGEAMACGVPCVVTDVGDSAWIIDDTGIVVPPNNPEALKAGITSLINIISSKSYSSCHIRQRIISHFSVLNLSLKTQNSLLSINVL | not soluble
20 | MDIPVFTMVGEWKCKEGEWKFEPKEGIFGRCVRVQETMTYTDFVRTLREAFSLKSTEINPIISYWMLGEMSVLIDTKHPPVYIDSQMGLETFFFGSWWVSFSQLVRLFQ | not soluble
21 | MAHHHHHHMGLEDIDECLPPSLGGKGQVLKGRPVNNGDGTSGSCAKVNFGELFGFPVASSGGAVMPSASAGVGSVQAGSKTECQEPEEQWIWVSAEGQKSEASPVDNMAGRSNDPLDAFFTSHTPSLQPSSSMKREEKPFTDLLDFSKPAERVRYSDEHSLLEAFENQSKGRRADVRDDPSLEDLSHGSSNNAVRARLLKIMNYYDILGVTRDATEEQIRQRYKQKALELHPDRVGRDQTPEEVELFKVMTKANEVLCDPEERAKYDEELRCSNVGADDEAQWLFHLHLR | soluble
22 | MLTVTFTVSNTGDRAGAAVPQVYPGFPNTTIDRCVRELKAFRRVELEPGQRQTVTVALTRRDLSYWDILPHPLRSYAVGSILEHHHHHH | not soluble
